According to patent publication US20190282654A1 (OHIO STATE INNOVATION FOUNDATION, published 2019):
Square brackets hold non-standard residues; d marks the D form. Ends that are not written are not given here. 2Nal = N[C@@H](Cc1ccc2ccccc2c1)C(=O)O

Target: T1, GST-NEMO(1-196) (UniProt Q9Y6K9 1-196)
T1 construct: range 1-196; Expressed in E. coli from pGEX4T3-GST-NEMO(1-196) and purified on glutathione-Sepharose; Used with the GST tag in the HTRF assay (30 nM); also called Recombinant GST-NEMO; NF-κB essential modifier; not shown: glutathione S-transferase (GST) tag encoded by the pGEX4T3 vector
T1 sequence (Q9Y6K9 1-196): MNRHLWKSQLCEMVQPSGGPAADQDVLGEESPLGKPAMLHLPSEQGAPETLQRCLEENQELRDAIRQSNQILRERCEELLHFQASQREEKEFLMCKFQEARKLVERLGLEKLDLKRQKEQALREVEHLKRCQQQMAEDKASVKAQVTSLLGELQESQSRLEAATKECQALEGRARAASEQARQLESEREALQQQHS
Assay: HTRF competition, NEMO-IKK interaction (FIG. 6)
Experimental: The plate was incubated for 2 h at room temperature. […] The data was analyzed using GraphPad Prism 6.0 and IC₅₀ values were obtained by fitting the data to the dose-response inhibition curves.

In the case of RRRR[2Nal]FCALDWSWLQC (cysteine pairing not given here) [RRRRΦFCALDWSWLQC], the IC50 is reported as 1400 nM.

With RRRR[2Nal]FTALDWSWLQT [RRRRΦFTALDWSWLQT] the IC50 was 1600 nM.
